Measured values published in patent US7517654B2, “Peptide and a derivative thereof promoting cell adhesion and spreading” (Seoul National University Industry Foundation, priority 2004, dated 2009).

How the values were obtained:
[1] = system: NHEK; assay: Cell proliferation on coated plates, viable cell count by trypan blue exclusion; type: cell-based, human; conditions: peptide P4 20 μg/12-well plate; 1-4 days; compared with PS-coated plate
Description: Normal human epidermal keratinocytes (NHEK) tissue samples were prepared from foreskin tissue of healthy 1- to 3-year-old people. The tissue samples were washed three times with calcium- and magnesium-free Hanks balanced salt solution containing 3× antibiotics (CMF-HBSS; GibcoBRL), and added with CMF-HBSS containing collgenase (collgenase type II, 1.0 mg/ml; sigma Chemical Co.) and dispase (dispase grade II, 2.4 mg/ml; Boeringer-Mannheim) to isolate epithelial layer from epidermal tissue, and then, cultured in 95% air and 5% CO2 at 37° C. for 90 min. NHEKs were prepared from the isolated epidermal tissue, and cultured in epithelial cell medium containing 0.15 mM calcium and growth factor bullet kit (KGM; Clonetics Corp.). When cell density was about 70%, NHEKs were divided into 1×10^5 cells per 60-mm petri dish and cultured until cell density reached about 70%. NHEKs were subcultured two times the same way as the above and used.
(§1) Polystyrene (PS), BSA (bovine serum albumin) and synthetic peptide P4 were coated on […]. NHEK (PD 13.0; 2×10^4 cells/12-well plate) and NHEF (passage number 4) cultures were added to the 12-well plate coated with the polystyrene (PS), BSA (1%) and synthetic peptide P4 (20 μg/12-well plate), and cultured for 1, 2, 3, or 4 days. Viable cells were counted by trypan blue exclusion in a hemocytometer. Data are expressed as mean ±SD (n=4).

[2] = target: T1, integrin α3β1 (Homo sapiens, UniProt P05556+P26006); assay: Adhesion activity inhibition assay with function-blocking anti-integrin mAbs or EDTA; type: cell-based; conditions: 25 μg/ml rLG3 or 10 μg/well peptide P4 coating; for inhibition of cell adhesion activity by anti-integrin β1 antibody: 5 μg/ml mAb (6S6) preincubation 30 min; for inhibition of cell adhesion activity by anti-integrin α3 antibody: 5 μg/ml mAb (P1B5) preincubation 30 min; for effect of EDTA on cell adhesion: 5 mM EDTA preincubation 30 min
T1 construct: it is confirmed that the HOK-16B cells expressed several integrins, including α3β1, α6β1, and α6β4; endogenous in cells; host or cells: HOK-16B (HPV-16-immortalized human oral keratinocytes)
T1 sequence (P26006 33-872 limits assumed): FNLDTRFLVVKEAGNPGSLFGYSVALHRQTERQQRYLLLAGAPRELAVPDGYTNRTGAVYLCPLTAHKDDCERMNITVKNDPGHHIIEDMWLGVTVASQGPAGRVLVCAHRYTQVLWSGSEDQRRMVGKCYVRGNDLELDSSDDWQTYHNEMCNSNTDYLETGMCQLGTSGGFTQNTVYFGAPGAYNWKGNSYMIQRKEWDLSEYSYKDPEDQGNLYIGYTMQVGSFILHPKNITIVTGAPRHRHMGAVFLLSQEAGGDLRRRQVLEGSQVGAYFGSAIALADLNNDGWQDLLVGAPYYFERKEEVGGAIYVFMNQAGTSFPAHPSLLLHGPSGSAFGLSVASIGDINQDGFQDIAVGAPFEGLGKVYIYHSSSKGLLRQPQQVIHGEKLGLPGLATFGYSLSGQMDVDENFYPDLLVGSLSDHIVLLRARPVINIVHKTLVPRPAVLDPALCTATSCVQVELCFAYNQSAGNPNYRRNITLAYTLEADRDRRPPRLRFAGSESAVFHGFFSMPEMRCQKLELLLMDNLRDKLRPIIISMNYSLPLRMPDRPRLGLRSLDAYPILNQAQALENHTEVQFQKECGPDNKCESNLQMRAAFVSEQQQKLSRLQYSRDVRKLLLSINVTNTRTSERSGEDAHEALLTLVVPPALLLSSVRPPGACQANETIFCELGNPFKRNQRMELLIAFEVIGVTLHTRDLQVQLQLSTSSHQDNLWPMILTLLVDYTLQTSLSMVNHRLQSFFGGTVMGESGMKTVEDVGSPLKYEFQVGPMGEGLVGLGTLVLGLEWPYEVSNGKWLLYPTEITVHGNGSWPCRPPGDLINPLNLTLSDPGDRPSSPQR
T1 sequence (P26006 873-1051 limits assumed): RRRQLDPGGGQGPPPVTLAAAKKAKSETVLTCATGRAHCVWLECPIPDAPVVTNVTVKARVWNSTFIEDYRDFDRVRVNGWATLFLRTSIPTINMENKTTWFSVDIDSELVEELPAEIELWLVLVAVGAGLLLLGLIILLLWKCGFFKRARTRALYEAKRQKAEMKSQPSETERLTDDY
T1 sequence (P05556 21-798): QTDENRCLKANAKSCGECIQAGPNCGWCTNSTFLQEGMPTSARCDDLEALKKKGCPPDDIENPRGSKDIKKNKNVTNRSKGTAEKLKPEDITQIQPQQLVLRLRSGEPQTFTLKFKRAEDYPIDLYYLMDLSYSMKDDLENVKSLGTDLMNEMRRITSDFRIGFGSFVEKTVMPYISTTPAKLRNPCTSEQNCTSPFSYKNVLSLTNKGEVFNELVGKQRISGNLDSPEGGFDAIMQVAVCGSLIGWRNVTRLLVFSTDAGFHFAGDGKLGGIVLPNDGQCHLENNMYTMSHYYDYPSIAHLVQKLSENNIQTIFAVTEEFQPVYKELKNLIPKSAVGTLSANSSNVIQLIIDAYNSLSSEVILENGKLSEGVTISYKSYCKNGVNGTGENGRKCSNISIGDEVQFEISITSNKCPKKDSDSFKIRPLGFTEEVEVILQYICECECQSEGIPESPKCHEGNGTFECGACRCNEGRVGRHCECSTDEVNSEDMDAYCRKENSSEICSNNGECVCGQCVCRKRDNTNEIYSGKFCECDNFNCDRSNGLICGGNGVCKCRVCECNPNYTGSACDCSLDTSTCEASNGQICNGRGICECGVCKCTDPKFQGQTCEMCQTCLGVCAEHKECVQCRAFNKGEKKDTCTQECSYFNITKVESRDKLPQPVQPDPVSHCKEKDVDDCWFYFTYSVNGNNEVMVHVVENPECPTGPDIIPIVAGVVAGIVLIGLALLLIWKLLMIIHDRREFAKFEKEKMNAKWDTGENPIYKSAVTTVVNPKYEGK
Description: (§2) To identify the receptor of the HOK-16B cells for rLG3 protein and peptide P4, 5 μg/ml of mAbs to different types of integrins or 5 mM EDTA were preincubated individually with HOK-16B cells in 0.5 ml incubation solution (2×10^5 cells/ml) for 30 min at 37° C. The preincubated cells were then transferred onto plates precoated with either 25 μg/ml of rLG3 protein or 10 μg/well of peptide P4 and incubated for 1 h at 37° C. Attached cells were then quantified by the cell adhesion assay described above in the Experimental Example 2, and cell adhesion activity inhibition rate were measured.
Meanwhile, the ligand-integrin interaction were known to require a divalent cation. To determine the role of cations in the interaction, the present inventors examined the effect of metal-chelating reagent, EDTA, on HOK-16B cell adhesion to the rLG3- and peptide P4-coated plates. HOK-16B cells were preincubated with 5 mM EDTA or 5 μg/ml function-blocking mAbs (Chemicon Temecula, CA) against integrin α3 (P1B5), β1 (6S6), α6 (NK I-GoH3) subunits for 30 min at 37° C. and plated on 25 μg/ml rLG3-precoated plate, and then cultured for 1 hr. After the unbound cells were washed off, the adherent cells were fixed to stain with crystal violet, and the stained cells were analyzed. The average adhesion activity of control cultures (HOK-16B cells preincubated without EDTA or integrin antibodies) were considered 100%.

[3] = system: NHEF; assay: Cell proliferation on coated plates, viable cell count by trypan blue exclusion; type: cell-based, human; conditions: peptide P4 20 μg/12-well plate; 1-4 days; compared with PS-coated plate
Description: Normal human […] (NHEF) were taken from foreskin tissue of healthy 1- to 3-year-old people, and washed three times with calcium- and magnesium-free Hanks balanced salt solution containing 3× antibiotics (CMF-HBSS; GibcoBRL), and prepared by explant culture. When cell density was about 80%, NHEFs were divided by the ratio of 1:3 and cultured until cell density reached about 80%. […] were subcultured 4 times the same way as the above and used.
as §1

[4] = system: HOK-16B cells; assay: Cell spreading activity assay on coated plates; type: cell-based, human; conditions: spreading cells divided by total bound cells, coated plates
Description: To identify spreading cells, attached cells were fixed with 10% formalin in PBS for 15 min, rinsed twice with PBS, and stained with 0.005% crystal violet for 1 h. The plates were then gently rinsed with DDW. To ensure a representative count, each plate was divided into quarters, two fields per quarter were photographed using an Olympus BX51 microscope at 100× magnification. Cells that had adopted a flattened, polygonal shape, with filopodia-and lamellipodia-like extensions were considered to be spreading cells. In contrast, cells that resisted being washed and remained tethered to the plate surface were considered to be non-spreading cells.
To examine the adhesion activity of peptide P4 in detail, the inventors examined whether the adherent cells were tethered to the substratum or spread over the substratum. The BSA and rLG3 were used as the negative control and positive control, respectively, the percentage of cells displaying a spreading morphology was quantified by dividing the number of spreading cells by the total number of bound cells.

[5] = system: HOK-16B cells; assay: Competition of soluble peptides for HOK-16B cell adhesion to rLG3-coated plates; type: cell-based, human; conditions: HOK-16B cells preincubated 30 min with 100 μg/ml peptide, control without peptide = 100%
Description: as §2
Accordingly, the inventors examined the ability of peptide P4 to compete for cell adhesion activity to rLG3 domain by the method of Experimental Example 4. First, the purified rLG3 proteins (25 μg/well) were coated onto 24-well plates. HOK-16B cells were preincubated with the various peptides (100 μg/ml) or without the peptide for 30 min at 37° C. The preincubated cells were then added to rLG3-coated plates and cultured for 1 h in serum-free medium. The unbound cells were washed off and the adherent cells were fixed and stained with crystal violet. The average adhesion activity of the control cultures (HOK-16B cells preincubated without peptide) was considered 100%, the results are expressed as mean ±SD of the four independent experiments.

Molecule	increase in the number of NHEKs according to cell proliferation [1]	inhibition of cell adhesion activity by anti-integrin β1 antibody [2] [%]	inhibition of cell adhesion activity by anti-integrin α3 antibody [2] [%]	effect of EDTA on cell adhesion [2]	increase in the number of NHEFs according to cell proliferation [3]	HOK-16B cells displaying a spreading morphology [4] [%]	inhibition of cell adhesion to rLG3 [5]
PPFLMLLKGSTR [peptide P4]	increased more than that on PS-coated plate	54	49	decrease in cell adhesion	similar	35	approximately 51%
rLG3: recombinant His6-tagged LG3 domain, residues 1128-1364 of human laminin α3 chain (protein, listed as Homo sapiens, His6 tag, recombinant His6-tagged LG3 domain, residues 1128-1364 of human laminin α3 chain) VRLNDTVGVTKKCSEDWKLVRSASFSRGGQLSFTDLGLPPTDHLQASFGFQTFQPSGILLDHQTWTRNLQVTLEDGYIELSTSDSGGPIFKSPQTYMDGLLHYVSVISDNSGLRLLIDDQLLRNSKRLKHISSSRQSLRLGGSNFEGCISNVFVQRLSLSPEVLDLTSNSLKRDVSLGGCSLNKPPFLMLLKGSTRFNKTKTFRINQLLQDTPVASPRSVKVWQDACSPLPKTQANH		71	71	almost completely inhibited		47	
